Measured values: patent US20030108991

Biological target: T1, N-Succinyl-Ala-Ala-Pro-Phe-p-nitroanilide
T1 chain: AAPF

B1: soluble keratinase (Bacillus licheniformis PWD-1 keratinase) (protein)
chain: AQTVPYGIPLIKADKVQAQGFKGANVKVAVLDTGIQASHPDLNVVGGASFVAGEAYNTDGNGHGTHVAGTVAALDNTTGVLGVAPSVSLYAVKVLNSSGSGSYSGIVSGIEWATTNGMDVINMSLGGASGSTAMKQAVDNAYARGVVVVAAAGNSGSSGNTNTIGYPAKYDSVIAVGAVDSNSNRASFSSVGAELEVMAPGAGVYSTYPTNTYATLNGTSMVSPHVAGAAALILSKHPNLSASQVRNRLSSTATYLGSSFYYGKGLINVEAAAQ
  Km: 220 µM
